Source: PMC10591846

Target: GST-Pirh2 (construct of Figures S5 and S12 not stated) (human) (UniProt Q96PM5)
Assay: AlphaScreen or HTRF

Sequence of GST-Pirh2 (construct of Figures S5 and S12 not stated) (human) (Q96PM5 whole entry): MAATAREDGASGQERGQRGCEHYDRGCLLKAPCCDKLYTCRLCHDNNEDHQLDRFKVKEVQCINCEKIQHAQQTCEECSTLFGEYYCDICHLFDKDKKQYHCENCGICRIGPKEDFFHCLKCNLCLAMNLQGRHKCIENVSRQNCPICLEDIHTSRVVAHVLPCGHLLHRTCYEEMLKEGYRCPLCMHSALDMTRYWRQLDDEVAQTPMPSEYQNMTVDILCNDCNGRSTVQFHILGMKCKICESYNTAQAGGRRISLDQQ

B. subtilis SsrA tag (peptide) showed an IC50 of 0.47 µM.
